The results in this text go back to patent publication US20170089895A1.

For experiment [1], the target named is Purified HNA-4a protein (CD11b) (human) (UniProt P11215). The experiment in a line: Luminex bead assay, protein on microbeads; reference, 1 by definition.
Experiment [2] concerns the target Purified HNA-5a protein (CD11a) (human) (UniProt P20701). Described as above.
Experiment [3] has as its target HNA-1a K138T modified protein (human) (UniProt O75015). The experiment in a line: Luminex bead assay, protein on microbeads, PE goat anti-human IgG; reference, 1 by definition.
In experiment [4] the target is HNA-1a L136A modified protein (human) (UniProt O75015). The experiment is described as above.
For experiment [5], the target named is HNA-1a W131F modified protein (human) (UniProt O75015). Described as above.
Experiment [6] has as its target HNA-1b K138T modified protein (human) (UniProt O75015). The experiment is described as above.
Experiment [7] has as its target HNA-1b L136A modified protein (human) (UniProt O75015). The description is as above.
Experiment [8] deals with HNA-1b W131F modified protein (human) (UniProt O75015). Described as above.
Experiment [9] has as its target HNA-1c K138T modified protein (human) (UniProt O75015). The experiment is described as above.
The target of experiment [10] is HNA-1c L136A modified protein (human) (UniProt O75015). The description is as above.
The target of experiment [11] is HNA-1c W131F modified protein (human) (UniProt O75015). The experiment is described as above.
The target of experiment [12] is Purified HNA-2 protein (CD177) (human) (UniProt Q8N6Q3). The experiment is described as above.
Chain of UniProt Q8N6Q3 (Q8N6Q3 22-408 limits assumed): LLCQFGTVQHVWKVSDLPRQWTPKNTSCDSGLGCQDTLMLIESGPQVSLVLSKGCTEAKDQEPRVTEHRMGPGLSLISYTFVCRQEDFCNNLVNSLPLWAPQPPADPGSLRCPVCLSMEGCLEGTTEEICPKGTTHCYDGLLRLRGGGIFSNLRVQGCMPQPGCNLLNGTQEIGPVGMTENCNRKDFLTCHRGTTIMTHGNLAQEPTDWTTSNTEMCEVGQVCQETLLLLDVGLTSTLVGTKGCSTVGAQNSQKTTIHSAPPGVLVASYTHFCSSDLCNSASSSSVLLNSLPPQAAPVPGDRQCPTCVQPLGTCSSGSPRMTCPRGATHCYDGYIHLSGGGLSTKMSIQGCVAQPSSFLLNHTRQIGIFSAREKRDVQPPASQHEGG
Experiment [13] addresses Purified HNA-3a protein (CTL2) (human) (UniProt Q8IWA5). Described as above.
Chain of UniProt Q8IWA5 (Q8IWA5 whole entry): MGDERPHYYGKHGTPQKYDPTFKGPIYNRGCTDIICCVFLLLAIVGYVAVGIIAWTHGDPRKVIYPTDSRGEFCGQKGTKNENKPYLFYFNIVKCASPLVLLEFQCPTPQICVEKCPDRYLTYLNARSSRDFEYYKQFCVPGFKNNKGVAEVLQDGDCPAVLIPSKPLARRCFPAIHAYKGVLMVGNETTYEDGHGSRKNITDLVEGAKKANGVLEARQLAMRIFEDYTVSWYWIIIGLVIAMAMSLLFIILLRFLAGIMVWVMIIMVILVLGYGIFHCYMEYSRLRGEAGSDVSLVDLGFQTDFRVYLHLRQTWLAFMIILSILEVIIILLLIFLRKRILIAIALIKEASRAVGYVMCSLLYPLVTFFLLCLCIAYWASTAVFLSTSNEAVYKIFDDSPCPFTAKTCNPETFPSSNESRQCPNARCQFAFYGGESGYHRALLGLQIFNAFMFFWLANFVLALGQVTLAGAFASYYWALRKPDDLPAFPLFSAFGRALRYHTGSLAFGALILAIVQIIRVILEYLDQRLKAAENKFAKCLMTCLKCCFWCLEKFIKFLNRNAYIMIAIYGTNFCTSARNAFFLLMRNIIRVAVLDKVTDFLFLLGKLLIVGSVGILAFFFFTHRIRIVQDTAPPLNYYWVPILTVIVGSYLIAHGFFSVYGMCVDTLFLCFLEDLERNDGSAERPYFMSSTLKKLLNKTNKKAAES
Experiment [14] concerns the target wild type HNA-1a protein (Fc gamma receptor type IIIb, FcγRIIIb, CD16b) (human) (UniProt O75015). The description is as above.
For experiment [15], the target named is wild type HNA-1b protein (Fc gamma receptor type IIIb, FcγRIIIb, CD16b) (human) (UniProt O75015). The description is as above.
Experiment [16] deals with wild type HNA-1c protein (Fc gamma receptor type IIIb, FcγRIIIb, CD16b) (human) (UniProt O75015). The description is as above.
For experiment [17], the target named is HNA-1b K138T modified protein (human) (UniProt O75015). The experiment in a line: Luminex bead assay, protein on microbeads, negative serum, PE goat anti-human IgG; non-specific IgG background.
Experiment [18] concerns the target HNA-1b L136A modified protein (human) (UniProt O75015). The description is as above.
In experiment [19] the target is HNA-1b W131F modified protein (human) (UniProt O75015). The description is as above.
Experiment [20] concerns the target HNA-1c K138T modified protein (human) (UniProt O75015). The description is as above.
Experiment [21] concerns the target HNA-1c L136A modified protein (human) (UniProt O75015). The description is as above.
Experiment [22] addresses HNA-1c W131F modified protein (human) (UniProt O75015). The experiment is described as above.
Experiment [23] deals with wild type HNA-1b protein (Fc gamma receptor type IIIb, FcγRIIIb, CD16b) (human) (UniProt O75015). The description is as above.
For experiment [24], the target named is wild type HNA-1c protein (Fc gamma receptor type IIIb, FcγRIIIb, CD16b) (human) (UniProt O75015). The description is as above.
The target in experiment [25] is HNA-1a K138T modified protein (human) (UniProt O75015). Nature of the experiment: Luminex bead assay, protein on microbeads, neat negative serum, PE goat anti-human IgG; non-specific IgG background.
Experiment [26] deals with HNA-1a L136A modified protein (human) (UniProt O75015). The experiment is described as above.
For experiment [27], the target named is HNA-1a W131F modified protein (human) (UniProt O75015). Described as above.
Experiment [28] concerns the target wild type HNA-1a protein (Fc gamma receptor type IIIb, FcγRIIIb, CD16b) (human) (UniProt O75015). Described as above.
The target in experiment [29] is Purified HNA-4a protein (CD11b) (human) (UniProt P11215). The experiment in a line: Luminex bead assay, protein on microbeads; ratio to negative mouse IgG; 6 tests.
For experiment [30], the target named is Purified HNA-5a protein (CD11a) (human) (UniProt P20701). Described as above.

Chain of UniProt P20701 (P20701 26-1170 limits assumed): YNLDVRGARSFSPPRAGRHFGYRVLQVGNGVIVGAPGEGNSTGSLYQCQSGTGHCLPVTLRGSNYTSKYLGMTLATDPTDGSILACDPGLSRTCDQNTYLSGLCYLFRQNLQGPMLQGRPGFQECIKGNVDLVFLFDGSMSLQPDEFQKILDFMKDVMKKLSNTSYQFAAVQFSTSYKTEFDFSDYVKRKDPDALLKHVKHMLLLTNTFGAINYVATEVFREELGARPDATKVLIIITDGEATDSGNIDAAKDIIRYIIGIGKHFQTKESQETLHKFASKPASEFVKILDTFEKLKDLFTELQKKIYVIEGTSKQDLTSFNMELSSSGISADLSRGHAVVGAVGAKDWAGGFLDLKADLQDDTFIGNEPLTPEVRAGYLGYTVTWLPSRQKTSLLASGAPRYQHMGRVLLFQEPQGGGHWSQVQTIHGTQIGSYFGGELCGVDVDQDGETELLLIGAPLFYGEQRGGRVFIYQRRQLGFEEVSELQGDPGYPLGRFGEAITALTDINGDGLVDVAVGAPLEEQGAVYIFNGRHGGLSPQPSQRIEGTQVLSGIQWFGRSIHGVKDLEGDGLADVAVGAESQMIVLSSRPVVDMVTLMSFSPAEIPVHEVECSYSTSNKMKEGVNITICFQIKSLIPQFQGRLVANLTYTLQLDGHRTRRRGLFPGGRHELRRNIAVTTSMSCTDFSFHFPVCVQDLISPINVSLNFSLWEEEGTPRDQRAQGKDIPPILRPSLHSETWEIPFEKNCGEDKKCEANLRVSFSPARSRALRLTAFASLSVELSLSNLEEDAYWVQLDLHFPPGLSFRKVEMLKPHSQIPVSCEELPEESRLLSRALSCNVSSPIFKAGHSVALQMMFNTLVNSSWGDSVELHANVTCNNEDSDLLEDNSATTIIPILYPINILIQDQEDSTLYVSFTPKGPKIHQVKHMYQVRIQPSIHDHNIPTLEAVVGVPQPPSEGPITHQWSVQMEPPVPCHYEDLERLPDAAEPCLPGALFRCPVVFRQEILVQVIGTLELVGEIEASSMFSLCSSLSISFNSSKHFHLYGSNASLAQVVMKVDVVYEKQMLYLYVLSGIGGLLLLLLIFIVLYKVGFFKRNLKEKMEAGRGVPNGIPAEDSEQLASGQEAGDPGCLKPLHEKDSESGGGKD

For Negative mouse IgG (antibody), the detection ratio in experiment [1] and in experiment [2] was 1 fold each time.
With Negative Sera (#LSNC) (antibody), the Fold Increased Ratio Against Negative Sera in experiment [3], in [4], in experiment [5], in [6], in experiment [7] and in experiment [8] was 1 fold in each case. Further, the Fold Increased Ratio Against Negative Sera in experiment [9], in [10], in [11], in experiment [14], in [15] and in experiment [16] was 1 fold each time. Further, the detection ratio in experiment [12] and in experiment [13] was 1 fold each time. The Background Value (MFI) in [17] stood at 187 MFI; in experiment [18] it was 277 MFI; in [19], 183 MFI; in experiment [20] it was 126 MFI; in experiment [21] it was 209 MFI; in experiment [22], 181 MFI. Besides, the Background Value (MFI) worked out at 1970 MFI in [23]; 1500 MFI in experiment [24]; 450 MFI in [25]; 290 MFI in [26]; 417 MFI in [27]; 1910 MFI in [28].
Turning to Positive mouse IgG (#TS1/18) (antibody), the detection ratio came to 543 fold in [29] and 5 fold in [30].
For Positive mouse IgG (#ICRF44) (antibody) the same measures were 594 fold and 3 fold.
